Assay results: publication PMC7577978, “IM30 IDPs form a membrane-protective carpet upon super-complex disassembly” (Communications Biology, 2020)
Substitutions are numbered along the chain they refer to. Names and notes keep the numbering of the source.

How the values were obtained:
[1] = molecular target: T1, IM30-Venus, Venus-labeled Synechocystis IM30 (Synechocystis sp. PCC 6803, UniProt Q55707 1-267); assay: FRET or BRET; 0.2 µM purified CFP/Venus labeled IM30 rings (copurified from mixed cell pellets, 27% CFP and 63% Venus w/w), excitation 420 nm, RT, with 0-1000 µM DOPG liposomes; settings: both partners purified
T1 construct: IM30 (VIPP1) of Synechocystis sp; PCC 6803; Venus fragment ligated into pRSET SynIM30 plasmid; purified as the His-tagged WT, so a His tag is likely present; also called Venus-labeled IM30 monomers; source: E. coli, copurified with IM30-CFP after mixing cell pellets prior to cell lysis
T1 sequence (looked up): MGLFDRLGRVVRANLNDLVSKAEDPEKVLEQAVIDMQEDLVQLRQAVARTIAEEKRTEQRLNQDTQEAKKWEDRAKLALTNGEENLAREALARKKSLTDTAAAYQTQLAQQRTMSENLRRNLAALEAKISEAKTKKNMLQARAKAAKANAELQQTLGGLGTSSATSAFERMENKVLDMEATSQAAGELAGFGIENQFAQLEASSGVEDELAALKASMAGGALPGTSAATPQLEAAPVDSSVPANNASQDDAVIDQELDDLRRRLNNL

[2] = molecular target: the molecule itself; assay: SEC; Superose12 10/300 GL, 20 mM HEPES pH 7.6 with 0, 50, 100, 150 or 300 mM NaCl, 8 °C; IM30* at suitable NaCl concentrations
[3] = molecular target: the molecule itself; assay: cross-linking; disulfide between Cys227 of two protomers; SDS-PAGE of the purified A227C mutants in absence of reducing agents
[4] = molecular target: the molecule itself; assay: atomic force microscopy; ~0.5 µM IM30 WT adsorbed on mica, 10 mM Tris or HEPES, 150 mM KCl, 25 mM MgCl2, pH 7.6; imaged in buffer at ~30 °C
[5] = molecular target: the molecule itself; assay: SEC-MALS; Superdex 200 Increase 10/300 GL, 25 mM HEPES pH 7.5, 125 mM NaCl, 5% glycerol (w/w), RT

B1: IM30-CFP, CFP-labeled Synechocystis IM30 (natural protein, Synechocystis sp. PCC 6803, UniProt Q55707 1-267, looked up)
chain: T1 sequence (looked up)
notes: IM30 (VIPP1) of Synechocystis sp; PCC 6803; CFP fragment ligated into pRSET SynIM30 plasmid; purified as the His-tagged WT, so a His tag is likely present; also called CFP labeled IM30 monomers; source: E. coli, copurified with IM30-Venus after mixing cell pellets prior to cell lysis
B1: binds [1].

B2: IM30* (E83A, E84A, F168A, E169A, R170A, M171A), oligomerization-impaired mutant of Synechocystis IM30 (natural protein, Synechocystis sp. PCC 6803, UniProt Q55707 1-267, looked up)
chain: T1 sequence (looked up) with E83A, E84A, F168A, E169A, R170A, M171A
notes: IM30 (VIPP1) of Synechocystis sp; PCC 6803, full length, with six alanine substitutions made by site-directed mutagenesis; For SEC-SAXS the protein was heated to 50 °C, cooled slowly and buffer-exchanged by SEC before the run; also called IM30* dimers
With B2 the “stoichiometry N” value [2] was 2.

B3: IM30*_A227C (E83A, E84A, F168A, E169A, R170A, M171A, A227C) (natural protein, Synechocystis sp. PCC 6803, UniProt Q55707 1-267, looked up)
chain: T1 sequence (looked up) with E83A, E84A, F168A, E169A, R170A, M171A, A227C
notes: IM30 (VIPP1) of Synechocystis sp; PCC 6803, full length, the six alanine substitutions of IM30* and A227C in the linker between helix 6 and 7; also called A227C mutant of IM30*
B3: binds [3].

B4: inner membrane-associated protein of 30 kDa (IM30) wild type, N-terminally His-tagged, from Synechocystis sp. PCC 6803 (natural protein, UniProt Q55707 1-267, looked up)
chain: T1 sequence (looked up)
notes: IM30 (VIPP1) of Synechocystis sp; PCC 6803, full-length wild type; also called IM30 WT; VIPP1
B4: binds [4].

B5: IM30_A227C, A227C mutant of Synechocystis IM30 WT (natural protein, Synechocystis sp. PCC 6803, UniProt Q55707 1-267, looked up)
chain: T1 sequence (looked up) with A227C
notes: IM30 (VIPP1) of Synechocystis sp; PCC 6803, full length, with A227C; the methods print '(A272C)' in brackets after the name IM30_A227C, the results and the legend say A227C; also called A227C mutant of IM30 WT
B5: binds [3].

B6: IM30_H3b-7 (amino acids 147-267), WT fragment of Synechocystis IM30 (domain or fragment, Synechocystis sp. PCC 6803, UniProt Q55707 147-267, looked up)
chain: KANAELQQTLGGLGTSSATSAFERMENKVLDMEATSQAAGELAGFGIENQFAQLEASSGVEDELAALKASMAGGALPGTSAATPQLEAAPVDSSVPANNASQDDAVIDQELDDLRRRLNNL
notes: IM30 (VIPP1) of Synechocystis sp; PCC 6803, amino acids 147-267 (helices 3b-7); also called helices 3b-7; intrinsically disordered C-terminus
In the case of B6, the “stoichiometry N” value [5] is reported as 2.
